Marks after values point to notes of the source that are not given here.

We go through one molecule from patent US10494415B2, “Insulin-like growth factor 2 (IGF2) binding agents” (Cancer Research Technology Limited, priority 2015, dated 2019).

The subject of one assay is SKNMC-IGF2^1-67 cells. Put plainly: Growth/viability of IGF2-autocrine SKNMC cells in culture (MTS). The format is cell-based, human. The text has this:
IGF2 sensitive autocrine cell line SKNMC-IGF2^67 was generated from the Ewing sarcoma cell line SKNMC by retroviral infection with constructs containing IRES-luciferase. Autocrine growth and signalling function of the SKNMC line, including inhibition by IGF2-TRAP, was confirmed in culture using an MTS reagent (Cell Titer 96 Aqueous One Solution cell proliferation assay, Promega). For xenografts, approximately 5×10^6 SKNMC-IGF2^67 cells harvested during the growth phase of sub-confluent cell cultures were then mixed with matrigel (50:50 v/v, 100 μl/mouse) and injected (sub-cutaneous) into CD-1® (Crl:NU-1 Foxn1nu) female mice, 24 hours after establishing ALZET® mini-pump placement delivering a single concentration 40 mg kg-1 per week either IGF2-TRAP or PBS vehicle control. Tumour growth was monitored with both caliper measurements and bioluminescence. The latter was performed with a Bruker Xtreme 2D optical system 15 minutes (10 second exposure) following luciferin injection (100 μl per 20 g body weight). Tumours were excised at 28 days or when size was >1000 mm3. Fixation in formalin, embedding in paraffin and Hematoxylin and Eosin (H&E) staining was done using standard protocols. Apoptotic area was quantified using automated image analysis of brightfield images in ImageJ, applying H AEC color deconvolution filter and automated thresholding. […]

For the next assay, the target named is T1, IGF2^1-156 (Homo sapiens, UniProt P01344).
T1 construct: pro-IGF2^1-156 [17 kDa]
Put plainly: SPR of IGF forms on Fc-domain 11 proteins immobilised by antibody capture. The format is binding. As for the experimental part: (§1) SPR analysis of the interaction of recombinant IGF1 and IGF2 forms with Fc-domain 11 proteins immobilised by antibody capture (CM5 chip containing monoclonal mouse anti-human IgG antibody immobilised by amine coupling). Measurements were carried out at 25° C. in HBS-EP buffer (pH 7.4).
(§2) Final kinetic analysis of mutants by SPR was conducted using a Biacore T200 biosensor at 25° C. in either HBS-EP (10 mM HEPES pH 7.4, 150 mM NaCl, 3 mM EDTA, and 0.005% (v/v) surfactant P20) or MES-EP (20 mM MES pH 6.5, 150 mM NaCl, 3 mM EDTA, and 0.005% (v/v) surfactant P20) at a flow-rate of 40 μL min^−1. […] For the analysis of the Fc-domain 11^AB5 interaction, approximately 50 RU of a biotinylated IGF2:biotinylated ubiquitin mixture (1:8 proportion) was immobilized on the CM5-streptavidin chip. This interaction was also analysed by immobilizing the Fc-domain 11^AB5 and Fc-domain 11^AB5-RHH (or Fc-domain 11^I1572A as control) by Human Antibody Capture (monoclonal mouse anti-human IgG antibody immobilised on a CM5 chip by amine coupling, GE Healthcare) with and without human IgG1 Fc fragment (Bethyl Laboratories, UK) in the control flow cell. Increasing concentrations of IGF2^1-67, proIGF2^1-104, proIGF2^1-156 and IGF1 ranging from 0.125 to 32 nM were injected. T200 BiaEvaluation software (GE Healthcare) was used to fit the resulting curves according to a 1:1 binding model. Steady state affinities were determined using the kinetic data, taking the response average at 5 seconds before injection end and for 5 seconds average. Thermodynamic data was performed across the temperature range of 10° C. to 30° C., van't Hoff and Erying plots generated and ΔH, −TΔS and ΔG values determined as previously described.

The next assay deals with T2, IGF2^1-67 (Homo sapiens, UniProt P01344).
T2 construct: Recombinant mature (IGF2^1-67 [7.5 kDa]
The description is as above. Type of assay: binding. The note with it: HBS-EP pH 7.4. The procedure: as §1, §2

For the next assay, the target named is T3, IGF2^1-104 (Homo sapiens, UniProt P01344).
T3 construct: pro-IGF2 (pro-IGF2^1-104 [11 kDa]
The description is as above. Type of assay: binding. The note with it: HBS-EP pH 7.4. As for the experimental part:
as §1, §2

The subject of assay [1] is SKNMC-IGF2^1-67 xenografts. Put plainly: IGF2 dependent human cancer cell xenografts. The format is in vivo, mouse. The note with it: for Xenograft growth: CD-1 nude mice, 40 mg kg-1 per week by osmotic mini-pump. The text has this:
IGF2 sensitive autocrine cell line SKNMC-IGF2^67 was generated from the Ewing sarcoma cell line SKNMC by retroviral infection with constructs containing IRES-luciferase. Autocrine growth and signalling function of the SKNMC line, including inhibition by IGF2-TRAP, was confirmed in culture using an MTS reagent (Cell Titer 96 Aqueous One Solution cell proliferation assay, Promega). For xenografts, approximately 5×10^6 SKNMC-IGF2^67 cells harvested during the growth phase of sub-confluent cell cultures were then mixed with matrigel (50:50 v/v, 100 μl/mouse) and injected (sub-cutaneous) into CD-1® (Crl:NU-1 Foxn1nu) female mice, 24 hours after establishing ALZET® mini-pump placement delivering a single concentration 40 mg kg-1 per week either IGF2-TRAP or PBS vehicle control. Tumour growth was monitored with both caliper measurements and bioluminescence. The latter was performed with a Bruker Xtreme 2D optical system 15 minutes (10 second exposure) following luciferin injection (100 μl per 20 g body weight). Tumours were excised at 28 days or when size was >1000 mm3. Fixation in formalin, embedding in paraffin and Hematoxylin and Eosin (H&E) staining was done using standard protocols. Apoptotic area was quantified using automated image analysis of brightfield images in ImageJ, applying H AEC color deconvolution filter and automated thresholding. Serum was also collected at the time of culling.
Background: Xenograft models place foreign cells or tissue in a host animal.

A further assay concerns IGF2 in human serum. Put plainly: Neutral size fractionation of human serum before and after depletion with IGF2-TRAP beads, western blot. The procedure: FIG. 14 IGF2-TRAP modifies the molecular distribution of IGF2 in human serum. Normal (left) and NICTH (right) sera were fractionated in a gel filtration column at neutral pH, alongside a molecular weight calibration marker, before and after incubation and depletion with IGF2-TRAP-loaded protein G beads. Elution fractions were analysed by western blot.
Changes in the molecular distribution of circulating IGF2 upon IGF2-TRAP treatment were analysed by neutral size fractionation of human serum (FIG. 14). In adult human serum, western blots of the fractions reveal that IGF2 is mainly the mature lower molecular weight isoform, and is predominantly present in a ternary complex with IGFBP3 and the acid labile subunit (ALS) (˜150 kDa), and to a lesser extent in a binary complex with IGFBP3 (˜40 kDa), with free IGF2 below the limit of detection. […] Pull-downs confirmed that the depleted IGF2 specifically bound IGF2-TRAP. In a second experiment, serum from a patient with Non-Islet-Cell Tumour-associated Hypoglycaemia (NICTH) secondary to a GIST tumour was utilised.
For orientation: A western blot detects proteins with antibodies after separation by electrophoresis.

T1 sequence (P01344 25-180): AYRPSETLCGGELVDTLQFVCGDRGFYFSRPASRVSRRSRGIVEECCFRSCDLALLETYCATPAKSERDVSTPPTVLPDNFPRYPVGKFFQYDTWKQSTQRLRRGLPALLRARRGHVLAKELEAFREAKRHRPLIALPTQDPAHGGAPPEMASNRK
T2 sequence (P01344 25-91): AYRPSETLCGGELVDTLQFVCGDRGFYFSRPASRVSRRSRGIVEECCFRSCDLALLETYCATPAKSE
Chain of IGF2 in human serum (P01344 25-91 limits assumed): as the sequence (P01344 25-91) above
T3 sequence (P01344 25-128): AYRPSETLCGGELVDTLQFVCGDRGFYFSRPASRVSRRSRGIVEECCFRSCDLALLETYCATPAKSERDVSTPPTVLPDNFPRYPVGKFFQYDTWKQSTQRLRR

B1: Fc-domain 11^AB5-RHH: Fc-fusion of domain 11^AB5-RHH (IGF2-TRAP); IgG2 Fc form purified from CHO cells used for xenografts (protein)
chain: NEHDDCQVTNPSTGHLFDLSSLSGRAGFTAAYAKGWGVYMSICGENENCPPGVGACFGRTRISVGKANKRLRYVDQVLQLVYKDGSHCPSKHGLSYKSVISFVCRPEAGPTNRPMLISLDKQTCTLFFSWHTPLACEQAT
modifications: left off: a dimerising Fc or GST
notes: Fc-fusion of domain 11^AB5-RHH (IGF2-TRAP); IgG2 Fc form purified from CHO cells used for xenografts
Consider B1, for which the figures for the “Growth of SKNMC cells expressing constitutive IGF2^1-67 in culture” value with SKNMC-IGF2^1-67 cells (listed as Fc-domain 11AB5-RHH) and in the assay with SKNMC-IGF2^1-67 cells (listed as IGF2-TRAP) were “inhibited” and “decreases the cell viability”, respectively. Also, the Kinetics koff in the assay with IGF2^1-156 (HBS-EP pH 7.4) is 0.0003 s⁻¹; with IGF2^1-67, 0.0014 s⁻¹; in the assay with IGF2^1-104 it was 0.0005 s⁻¹. Besides, the Kinetics kon with IGF2^1-156 (may be inaccurate (mixture of three isoforms)) is 0.23* ×10^6 M^−1s^−1; with IGF2^1-67 it was 2.6e+06 M⁻¹ s⁻¹; in the assay with IGF2^1-104 it was 1.29e+06 M⁻¹ s⁻¹. The Xenograft growth entry was “Reduced xenograft growth rates” in assay [1] (listed as Fc-domain 11AB5-RHH) and “reduces IGF2 dependent xenograft growth” in assay [1] (listed as IGF2-TRAP). Besides, the “Total serum IGF1, Growth Hormone or IGFBP levels” value in assay [1] (Day 28) is listed as “without alteration”. Further, the “Serum IGF2” value in assay [1] (Day 28, listed as Fc-domain 11AB5-RHH) is reported as “less evident”; in assay [1] (Day 28, listed as IGF2-TRAP), “reduced levels of serum IGF2”. The “IGF2 distribution in serum after IGF2-TRAP depletion” value in the assay with IGF2 in human serum (NICTH patient serum) was “depleted both lower and higher molecular weight isoforms of IGF2”; in the assay with IGF2 in human serum (normal adult human serum), “depleted IGF2 in the binary complex”.
